From patent publication US20180094051A1, “METHOD FOR INHIBITING LYMPHANGIOGENESIS BY ADMINISTRATION OF AN INHIBITOR OF THE CXCL12 PATHWAY” (Tsinghua University, priority 2012, published 2018)
“Also recorded” adds a separate entry of the source.

Columns and labels:
Assay type in all cases: cell-based
chemokine receptor CXCR4 = assay: Flow cytometry of CXCR4 on the surface of lymphatic endothelial cells; details: starved mouse lymphatic endothelial cells, 100 ng/mL VEGF-C, 24 hours
Experimental: Mouse primary lymphatic endothelial cells at passage 2 or 3 in good condition were selected and seeded into four 6 cm Petri dishes. Two groups of cells were cultured normally, while the other two groups of cells were treated by replacing the medium with a medium free of serum and growth factors when the cell density reached 80%, and starved overnight. One of the two groups was cultured for 24 hours after the medium was replaced with a serum-free culture medium containing 100 ng/mL of VEGF-C. The four groups of cells were detected for the expression level of chemokine receptor CXCR4 on the cell surface by flow cytometry. The group of cells cultured normally was used as negative control.
The cells were treated with 0.25% disodium EDTA (Ethylenediaminetetraacetic Acid Disodium Salt, EDTA), then washed with ice-cold PBS. The cells were suspended and centrifuged at a low speed (600 g, 3 minutes; the low-speed centrifugations in this experiment all referred to centrifugation at this speed for this time). The cells were resuspended in 1 mL of PBS containing 10% goat serum and then incubated for 15 minutes. […]
Each group of cells were resuspended in 1 mL of PBS containing 2% goat serum, and then 1 μg of fluorescein-labeled secondary antibody was added. […] The expression of CXCR4 on cell surface was analyzed by flow cytometry (FACS Calibur Flow Cytometry System, Becton Dickinson).

HIF-1α = assay: Immunoblotting of HIF-1α in lymphatic endothelial cells; details: mouse lymphatic endothelial cells, 100 ng/mL VEGF-C
[1] = tested on: mouse lymphatic endothelial cells; assay: Cell chemotaxis assay (Transwell); details: agent in outer chamber (CXCL12 1, 20, 100 ng/mL; VEGF-C 100 ng/mL), 6 hours
Experimental: The migration ability of mouse lymphatic endothelial cells was assessed using 8-μm-pore Transwell bucket (filter membrane) (purchased from Costar). The transwell bucket was placed into a 24-well plate. Mouse primary lymphatic endothelial cells (mLECs) at passage 2 or 3 in good conditions were selected, and divided into five groups, four parallel samples for each group and approximately 2×10^4 cells for each parallel sample. The cells were digested with trypsin, resuspended in 200 μL of fresh serum-free endothelial cell culture medium (ECM, purchased from Sciencell), and then seeded into the inner chambers of the Transwell bucket. To each outer chamber was added 800 μL of serum-free endothelial cell culture medium mixed with 1 ng/mL, 20 ng/mL, 100 ng/mL of chemokine CXCL12 (purchased from R&D Systems), 100 ng/mL of VEGF-C (purchased from R&D Systems) and PBS control, respectively. The culture plate was placed into an incubator and incubated under 5% CO2 at 37° C. for 6 hours.
After taking out the culture plate, the Transwell bucket was fixed in 4% paraformaldehyde solution for 15 minutes. The Transwell bucket was rinsed twice in PBS, stained with 0.1% crystal violet solution for 30 minutes, and then washed with PBS to remove the non-specifically bound crystal violet. The cells inside Transwell membrane were wiped off gently with medical cotton swabs. Note that the cells on the edge of the membrane should also be wiped off to avoid affecting cell counting. The Transwell bucket was placed under a microscope (Olympus IX71 microscope), and the cells migrated from the outer membrane were observed by microscopy. 8 fields per group were photographed randomly to count the cells.
The migration ability of mouse lymphatic endothelial cells was assessed using 8-μm-pore Transwell bucket (purchased from Costar). The bucket was placed into a 24-well plate. Mouse primary lymphatic endothelial cells (mLECs) at passage 2 or 3 in good conditions were selected, and divided into six groups, four parallel samples for each group, and approximately 2×10^4 cells for each parallel sample. The cells were digested with trypsin and resuspended in 200 μL, of fresh serum-free endothelial cell culture medium (ECM, purchased from Sciencell). The cells were pretreated for 30 minutes with dimethyl sulfoxide (DMSO) as a control, protein kinase B (Akt) antagonist LY294002 (10 μM, purchased from Sigma-Aldrich) and extracellular signal-regulated kinase (Erk) antagonist U0126 (10 μM, purchased from Sigma-Aldrich), respectively, and then seeded into the inner chambers of the Transwell bucket. […] The cells were stained and the number of the migrated cells was counted.
The migration ability of mouse lymphatic endothelial cells was detected by using 8-μm-pore Transwell bucket (purchased from Costar). […]

B1: VEGF-C: Vascular Endothelial Growth Factor C, the major pro-lymphangiogenesis factor; purchased from R&D Systems (protein, UniProt P49767 112-227, looked up)
Vascular endothelial growth …: AHYNTEILKSIDNEWRKTQCMPREVCIDVGKEFGVATNTFFKPPCVSVYRCGGCCNSEGLQCMNTSTSYLSKTLFEITVPLSQGPKPVTISFANHTSCRCMSKLDVYRQVHSIIRR
In the case of B1, the “cell surface CXCR4 protein level” value (chemokine receptor CXCR4) is reported as “could indeed upregulate the expression level of chemokine receptor CXCR4”, the “expression level of HIF-1α” value (HIF-1α) is reported as “could indeed upregulate the expression level of HIF-1α; also recorded: could up-regulate the expression of CXCR4 and HIF-1α” and the “migration of mouse lymphatic endothelial cells” value [1] is reported as “could promote the migration of mouse lymphatic endothelial cells”.
